Results as given in patent US12139531B2, “Compositions and methods useful in promoting milk production” (The Regents of the University of California, priority 2019, dated 2024).
“Also recorded” adds a separate entry of the source.

What was measured:
HC11 cells [1] = assay: HC11 dome assay (milk dome formation on differentiation in DIP media); type: cell-based, mouse; conditions: HC11 cells, increasing ECD concentration
Protocol: To investigate ROBO1 function during alveologenesis, Robo1 gene expression was inhibited in HC11 cells (Robo1 KD). HC11 cells are a well-established, prolactin-responsive model of lactation,^19,20. Cells in which Robo1 gene expression was not inhibited are referred to as WT or Robo1+/+ herein. To measure milk production, cells were grown to confluence and then primed by treatment with epidermal growth factor (EGF, 10 ng/ml). The EGF is administered for three days in combination with charcoal-stripped fetal bovine serum, followed by one day of charcoal-stripped fetal bovine serum in the absence of EGF. These primed cells are then differentiated by treatment with dexamethasone (1 μg/ml), insulin (5 μg/ml) and prolactin (Prl, 5 μg/ml) media (DIP media) for between 3 and 5 days (FIG. 2A). Differentiation (Dif) results in the development of milk-filled domes (FIG. 2B). […] If the cells were left undifferentiated (Undif), there was little dome formation in either WT or Robo1−/− cells (FIG. 2B). Next, tissue from Robo1 knockout mice (Robo1−/−) and wild type mice (WT or Robo1+/+) mice was analyzed. Mammary glands were harvested from pregnant day 18 WT and Robo1−/− animals and alveologenesis analyzed by serially sectioning, carmine staining and then quantifying the area occupied by alveoli in sections located at top, middle and bottom portions of the tissue.
Dome number formation in response to a titration of ROBO1 ECD fragments was quantified. […] A bovine ROBO1-Ig5 construct was also tested in this assay and, as with the rat constructs, more domes were formed in response to treatment with higher concentrations of […] (FIG. 7H).
(§1) HC11 cells were grown in RPMI 1640 media (Gibco) supplemented with 10% fetal bovine serum (BioFluid Technologies), 5 μg/mL insulin (Sigma), and 10 ng/ml epidermal growth factor (EGF; Sigma). To induce differentiation in HC11 cells, confluent plates were given fresh media (RPMI 1640 media supplemented with 5% charcoal-stripped fetal bovine serum (BioFluid Technologies), 5 μg/mL insulin, and 10 ng/ml epidermal growth factor (EGF; Sigma) for 3 days followed by 24 hours of priming in priming medium (RPMI 1640 media supplemented with 5% charcoal-stripped fetal bovine serum (BioFluid Technologies), and 5 μg/mL insulin. After priming, DIP medium (RPMI 1640 media supplemented with 5% charcoal-stripped fetal bovine serum (BioFluid Technologies), 10^−6 M dexamethasone (Sigma), 5 μg/mL insulin, and 5 μg/mL prolactin (National Hormone and Peptide program) was added with fresh media every 24 hours.

HC11 cells [2] = assay: RT-qPCR of milk genes (WAP, Lalba) in differentiated HC11 cells; type: cell-based, mouse; conditions: HC11 cells, ECD fragments added simultaneously with DIP media; DCC-Ig4 0.7 μM
Protocol: To determine whether the promotion of dome formation also results in higher milk production, HC11 cells were differentiated in the presence or absence of ROBO1-ECD fragments that were added to cells simultaneously with DIP media. Cells were harvested and the expression of WAP and Lalba assessed by RT-qPCR. […] WAP expression levels were not increased in cells treated with DCC-Ig4 (FIG. 7K). Next, Western blot analysis of WAP and PLIN2 was performed on cells treated with ROBO1-Ig5 and ROBO1-Ecto.
as §1
Total RNA was harvested from cells lysed in TRIzol reagent (Invitrogen) and phase separated according to manufacturer's protocol with an additional overnight RNA precipitation stem in ethanol (Macias et al., 2011). The RNA was further purified with TURBO DNase (Ambion) treatment. Total RNA quality was analyzed by agarose gel electrophoresis and quantified with an ND-1000 spectrophotometer (NanoDrop). cDNA libraries were prepared from 1 μg of total RNA using iScript cDNA synthesis kit (BioRad). Quantitative RT-PCR was performed in triplicates using light Cycler 480 SYBR Green I Master (Roche) and quantified using BioRad CFX'Connect Real-Time System and CFX Manager software (BioRad). […]

Row | Molecule | dome formation in response to a titration of ECD fragments (HC11 cells [1]) | WAP gene expression by RT-qPCR (HC11 cells [2])
1 | DCC-Ig4: extracellular domain of Deleted in Colorectal Cancer comprising four Ig domains, HA tagged, negative control (protein, listed as Rattus norvegicus, HA tag, extracellular domain of Deleted in Colorectal Cancer comprising four Ig domains, HA tagged, negative control) FTSLHFVSEPSDAVTMRGGNVLLNCSAESDRGVPVIKWKKDGLILALGMDDRKQQLPNGSLLIQNILHSRHHKPDEGLYQCEASLGDSGSIISRTAKVMVAGPLRFLSQTESITAFMGDTVLLKCEVIGDPMPTIHWQKNQQDLNPIPGDSRVVVLPSGALQISRLQPGDSGVYRCSARNPASTRTGNEAEVRILSDPGLHRQLYFLQRPSNVIAIEGKDAVLECCVSGYPPPSFTWLRGEEVIQLRSKKYSLLGGSNLLISNVTDDDSGTYTCVVTYKNENISASAELTVLVPPWFLNHPSNLYAYESMDIEFECAVSGKPVPTVNWMKNGDVVIPSDYFQIVGGSNLRILGVVKSDEGFYQCVAENEAGNAQSSAQLI | not observed | not increased; also recorded: no change
2 | bovine ROBO1-Ig5: bovine ROBO1-Ig5 construct (Bos taurus ROBO1-Ig5, SEQ ID NO: 2) (protein, listed as Bos taurus) MIAEPAHFYLFGLICLCSGSRLRQEDFPPRIVEHPSDLIVSKGEPATLNCKAEGRPTPTIEWYKGGERVETDKDDPRSHRMLLPSGSLFFLRIVHGRKSRPDEGVYVCVARNYLGEAVSHNASLEVAILRDDFRQNPSDVMVAVGEPAVMECQPPRGHPEPTISWKKDGSPLDDKDERITIRGGKLMITYTRKSDAGKYVCVGTNMVGERESEVAELTVLERPSFVKRPSNLAVTVDDSAEFKCEARGDPVPTVRWRKDDGELPKSRYEIRDDHTLKIRKVTAGDMGSYTCVAENMVGKAEASATLTVQVGSEPPHFVVKPRDQVVALGRTVTFQCEATGNPQPAIFWRREGSQNLLFSYQPPQSSSRFSVSQTGDLTITNVQRSDVGYYICQTLNVAGSIITKAYLEVTDVIADRPPPVIRQGPVNQTVAVDGTLVLSCVATGSPVPTILWRKDGVLVSTQDSRIKQLETGVLQIRYAKLGDTGRYTCIASTPSGEATWSAYIEVQEF | more domes; also recorded: increasing dome formation | 
